For one molecule, EC50 results are on record in patent publication US20150147337A1 (Merck Sharp & Dohme, published 2015).

Values joined by “and” are separate entries in the source; they are usually repeats but may differ in a detail not shown here. Identical values can stand only once.

The target of this assay is T1, Human IL-23 (human, UniProt P29460 23-328).
T1 construct: also called huIL-23
T1 sequence 1: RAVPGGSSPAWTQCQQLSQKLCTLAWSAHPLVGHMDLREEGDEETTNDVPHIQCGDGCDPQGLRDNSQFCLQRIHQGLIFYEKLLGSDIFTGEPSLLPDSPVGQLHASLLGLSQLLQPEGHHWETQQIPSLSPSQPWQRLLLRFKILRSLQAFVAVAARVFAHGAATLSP
T1 sequence 2: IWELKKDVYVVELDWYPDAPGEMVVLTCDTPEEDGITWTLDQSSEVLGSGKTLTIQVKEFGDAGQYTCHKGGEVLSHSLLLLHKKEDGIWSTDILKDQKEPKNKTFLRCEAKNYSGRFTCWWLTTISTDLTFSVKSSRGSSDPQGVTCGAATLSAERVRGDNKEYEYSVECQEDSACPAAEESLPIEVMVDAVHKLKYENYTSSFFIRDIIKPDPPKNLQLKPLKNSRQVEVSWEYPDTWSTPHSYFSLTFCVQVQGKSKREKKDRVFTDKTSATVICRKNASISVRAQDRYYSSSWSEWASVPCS
The assay can be described thus: ELISA, human IL-23 immobilized on plate, HRP anti-IgG detection, four-parameter fit. The protocol:
Re-dissolved crystalline anti-huIL-23p19 mAb 13B8-b was also compared to the original solution antibody by ELISA. Two different lots of each of solution and re-dissolved crystalline anti-huIL-23p19 mAb 13B8-b were tested for their ability to bind to IL-23. Human IL-23 was immobilized onto an ELISA plate, and serial dilutions of anti-huIL-23p19 mAb 13B8-b (solution or re-dissolved crystalline) were added to the wells. After the plates were washed, bound antibody was detected using an HRP-labeled anti-IgG antibody and a colorimetric substrate. Plates were read in a plate reader and the dose response curves were analyzed using a four-parameter logistic fit. At equilibrium, the EC50 of a saturation binding curve reflects the equilibrium binding dissociation constant (KD), where a higher value represents lower affinity, and a lower value represents higher affinity, of the antibody for the ligand. The potency of the test sample is assessed by comparing binding curves of the test samples to a reference material by the ratio of the EC50's. Potency is expressed as percent of reference material, in this case, selected to be lot #1 of the solution form of anti-huIL-23p19 mAb 13B8-b.

B1: humanized anti-human IL-23p19 monoclonal antibody 13B8-b (antibody, human IgG1, kappa, V domains shown)
VH: QVQLVQSGAEVKKPGASVKVSCKASGYIFITYWMTWVRQAPGQGLEWMGQIFPASGSADYNEKFEGRVTMTTDTSTSTAYMELRSLRSDDTAVYYCARGGGGFAYWGQGTLVTVSS
VL: DIQMTQSPSSLSASVGDRVTITCRTSENIYSYLAWYQQKPGKAPKLLIYNAKTLAEGVPSRFSGSGSGTDFTLTISSLQPEDFATYYCQHHYGIPFTFGQGTKVEIKR
notes: Full-length IgG1 kappa; It was tested as never-crystallized solution material (two lots) and as antibody re-dissolved from crystals (two lots); also called anti-huIL-23p19 mAb 13B8-b; hu13B8-b
As usually defined, the EC50 is the concentration needed to bring the measured effect to its halfway point. As to B1, the concentration giving a half-maximal response (EC50) was 0.071 nM and 0.106 nM and 0.073 nM and 0.116 nM.
